Test results published in PMC6392013 (Methods in molecular biology (Clifton, N.J.), 2012).

Biological target: ubiquitin (UniProt P0CG48 1-76)
Experiment: NMR intermolecular NOESY

B1: S5a (196–306) (domain or fragment, UniProt P55036 196-306, looked up)
chain: MLGLGASDFEFGVDPSADPELALALRVSMEEQRQRQEEEARRAAAASAAEAGIATTGTEDSDDALLKMTISQQEFGRTGLPDLSSMTEEEQIAYAMQMSLQGAEFGQAESA
B1: binds.
